Measured values: patent US20220057403A1

Biological target: HA-tagged re-expressed version of the Qa-1b molecule (mouse)
Experiment: immunoprecipitation of Qa-1b from tumor cells, mass spectrometry of the associated peptides

percent of Qa-1b associated with the peptide (control sample): > 99%
Binder: AMAPRTLLL [Mouse Qdm Peptide]
